The nanobody polyreactivity screen of Harvey et al. (2022)

assay: yeast display, Sf9 membrane polyspecificity reagent, FACS + sequencing; frameworks hold sequencing errors
Procedure, shortened: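 Nanobodies from a synthetic yeast display library (Saccharomyces cerevisiae BJ5465), induced 36–48 hours with galactose, were stained 1 hour at 4 °C with 10% biotinylated, detergent-solubilized Sf9 membrane reagent, enriched on streptavidin microbeads, then FACS-sorted. Anti-HA (expression) and streptavidin (reagent binding) fluorescence set low and high (top ~1%) gates. Polyreactivity labels come from the gate of origin. Genes were colony-PCR amplified, MiSeq 2 × 250 sequenced and filtered by CDR length.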

Row | Sequence | polyreactivity (PSR sort gate)
1 | QVQLVESGGGLVQAGGSLRLSCAASGYIFVRYAMGWYRQAPGKERELVAAINSSRGRTYYADSVKGRFTISRDNAKNTVSLQMNSLKPEDTAVYYCGAYGYYRSGYRALEGYWGQGTQVTVSS | high polyreactivity
2 | QVQLVESGGGLVQAGGSLRLSCAASGYIFVYYAMGWYRQAPGKEREMVAAISSSGDTTYYADSVKGRFTISRDNAKNTVYLQMNSLKPEDTAVYYCAARVRGYSHASNYYWGQGTQVTVSS | high polyreactivity
3 | QVQLVESGGGLVQAGGSLRLSCAASGYIFVYYVMGWYRQAPGKERELVTAIDGNGVSTYYADSVKGRFSISRDNAKYSVYLQMNSLKPDDTAVYYCAADYLYHQTSRGKYYSWGQGTQVTVSS | low polyreactivity
4 | QVQLVESGGGLVQAGGSLRLSCAASGYIFWGNAMGWYRQAPGKERELVAAISYIGGSTYYADSVKGRFTISRDNAKNTVYLQMNSLKPEDTAVYYCAKRVLHQPYYHGVSGRRYDYWGQGTQVTVSS | high polyreactivity
5 | QVQLVESGGGLVQAGGSLRLSCAASGYIFWSYAMGWYRQAPGKERELVAGITASGGSTYYADSVKGRFTISRDNAKNTVYLQMNSLKPEDTAVYYCAAEAYTQYWIYYYWGQCTQVTVSS | high polyreactivity
6 | QVQLVESGGGLVQAGGSLRLSCAASGYIFYAYAMGWSRQAPGKERELVAAISSGGGRTYYADSVKGRFTISRDNAKNTVYLQMNSLKPEDTAVYYCAARRRDRGEYYYWGQGTQVTVSS | high polyreactivity
7 | QVQLVESGGGLVQAGGSLRLSCAASGYIFYFNDMGWYRQAPGKERELVADITYSGDSTYYADSVKGRFTISRDNAKNTVYLQMNSLKPEDTAVYYCAARRGWWYRGDDYWGQGTQVNVSS | low polyreactivity
8 | QVQLVESGGGLVQAGGSLRLSCAASGYIFYQYAMGWDRQAPGKERELVAGINWRGGSTYADSVKGRFTISRDNAKITVYLQMNSLKPEDTEVYYCNANQYRQDVFRRPSYYAYYYWGQGTQVTVSS | high polyreactivity
9 | QVQLVESGGGLVQAGGSLRLSCAASGYIFYRYAMGWYRQAPGKEREFVASITKRGGRTFYADSVKGRFTISRDNAKNTVYLQMNSLKPEDTAVYYCARKAEYGTDMGYWGQGTQVTVSS | high polyreactivity
10 | QVQLVESGGGLVQAGGSLRLSCAASGYIFYSCAMGWYRQAPGKERELVATISSGGSTYYSDSVKGRFTISRDNAKNTVYLQMNSLKPEDTAVYYCNAKMYKPPFDYWGQGTQVTVSS | low polyreactivity
11 | QVQLVESGGGLVQAGGSLRLSCAASGYIFYTYAMGWYRQAPGKERELVASIDSGGSTNYADSVKGRFTISRDNAKNTVYLQMNSLKPEDTAVYYCAADVIVRVYYYYYVLMDYWGHGTQVTVSS | low polyreactivity
12 | QVQLVESGGGLVQAGGSLRLSCAASGYIFYYNAMGWYRQAPGKERELVADITWSGDSTYYADSVKGRFTISRYNAKNTVYLQMNSLKPEDTAVYYCAAEYLEYWDYDIMDYWGQGTQVTVSS | low polyreactivity
13 | QVQLVESGGGLVQAGGSLRLSCAASGYIFYYNTMGWYRQAPGKERELVAAIRSSGGSTYYADSVKGRFTISRDNAKNTVYLQMNSLKPEDTAVYYCAARPYRTKLIYGYWGQGTQVTVSS | high polyreactivity
14 | QVQLVESGGGLVQAGGSLRLSCAASGYIFYYYAMGWYRQAPGKERELVAAITFSGGSTYYADSVKGRFTISRDNAKNNVYLQMNRLKPEDTAGYYCAKVELRDAAELGSDEYDYWGQGTQVTVSS | low polyreactivity
15 | QVQLVESGGGLVQAGGSLRLSCAASGYIGNYPMGWYRQAPGKESELVAAITTSGGRTYYADSVKGRFTISRDNAKNTVYVQMNSLKPEDTAVYYCAAPWRLFSLYDYWGQGTQVTVSS | low polyreactivity
16 | QVQLVESGGGLVQAGGSLRLSCAASGYILGGNAMGWYRQAHGKERELDAVIRKSGGSTYADSVKGRFTISRDNAKNSVYLQMNSLKPEDTAVYYCNADTLAGVYFYQSDYWGQGTQVTVSS | low polyreactivity

Row | Sequence | polyreactivity (PSR sort gate)
17 | QVQLVESGGGLVQAGGSLRLSCAASGYILGVYAMGWYRQAPGKERELVASISRSGGSTYYADSVKGRFTISRDNAKNTVYLQMNSLKPEDTAVYYCATRSRTAHFRLRYDYWGQGTQVTVSS | low polyreactivity
18 | QVQLVESGGGLVQAGGSLRLSCAASGYILHPNAMRWYRQSPGKDRELVAAIRWRGGSTYYADSVKGRFTISRDNAKNTVYLQMNSLKPEDTAVYYCAADKSKYRAFDYWGQGTQVTVSS | high polyreactivity
19 | QVQLVESGGGLVQAGGSLRLSCAASGYILIYNAMGWYRQAPGTERELVAAINYRGDRTYYADSVKGRFTISRDNAKNTVYLQMNSLKPEDTAVYYCAKDYPYYGRYYRYPYDSWGQGTQVTVSS | high polyreactivity
20 | QVQLVESGGGLVQAGGSLRLSCAASGYILPKNTMGWYRQAPGKERELVAAISWSGGSTFYADSVKGRFTISRDNAKHTVYLQMNSLKPEDTAVYYCAADRSWSWYYRYDYWGQGTQVTVSS | low polyreactivity
21 | QVQLVESGGGLVQAGGSLRLSCAASGYILPKNTMGWYRQAPGKERELVAAISWSGGSTFYADSVKGRFTISRDNAKNTVYLQMNSLKPEDTAVYYCAADRSWSWYYRYDYWGQGTQVTVSS | low polyreactivity
22 | QVQLVESGGGLVQAGGSLRLSCAASGYILQINAMGWYRQAPGKERELVAAISISGGNTYYADSVKGRFTISRDNAKNTVYLQMNSLKPEDTAVYYCNAGGPLQPYDYWGQGTQVTVSS | low polyreactivity
23 | QVQLVESGGGLVQAGGSLRLSCAASGYILTHYAMGWYRQAPGKERELVAAITSSGGSTYYADSVKGRFTISRDNAKNTVYLQMNSLKPEDTAVYYCAADAGQQEYDYWGQGTQVTVSS | low polyreactivity
24 | QVQLVESGGGLVQAGGSLRLSCAASGYILWNAMGWYRPAPGKERELVAAIRFRGGSTSYADSVKGRFTISRDNAKNTVYLQMNSLKPEDTAVYYCNARWWVIRPYQRHDYWGQGTQVTVSS | low polyreactivity
25 | QVQLVESGGGLVQAGGSLRLSCAASGYISYVNAMGWYRQAPGKERELVAAISGRGGSTYYADSVKGRFTISRDNAKNNVYLQMNSLKPEDTAVYYCAADLYYSYYWGQGTQVTVSS | low polyreactivity
26 | QVQLVESGGGLVQAGGSLRLSCAASGYIVGAYAKGWYRQAPGKERELVAGITASGDSTYYADSVKGRFTISRDNAKNTVYLQMKCLKPEDTAVYYCNAQPDIGLYDRQWKEPYEYWGQGTQVTVSS | low polyreactivity
27 | QVQLVESGGGLVQAGGSLRLSCAASGYIVYFNAMGWYRQAPGKERELVASIDSGGSTNYADSVKGRFTISRDNAKNTVYLQMNSLKPADTAVYYCAADKLYQPGIGDDYWGQGTQVTVSS | low polyreactivity
28 | QVQLVESGGGLVQAGGSLRLSCAASGYIWYNAMRWYRQAPGKERELVAAISWGGGTTYYADSVKGRFTISRDNAKNTVYLQMNSLKPEDTAVYYCAAVDAVGPTSHAMYYWGQGTQVTVSS | low polyreactivity
29 | QVQLVESGGGLVQAGGSLRLSCAASGYIWYYAMGWSRQAPGKERELVAAISWGGGSTYYADSVKGRFTISRDNAKNTVYLQMNSLKPEDTAVYYCATRCIPDDNARDYWGQGTQVTVSS | low polyreactivity
30 | QVQLVESGGGLVQAGGSLRLSCAASGYIYSVNAMGWYRQAPGKERELVAAIRGSGGSTFYADSVKGRFTISRDNAKNTVYLQMNSLKPEDTAVSYCAASFLGSFTDWVYSVYEYGSWGQGTQVTVSS | low polyreactivity
31 | QVQLVESGGGLVQAGGSLRLSCAASGYLWYYAMGWYRQSPGKERELVAAICWGGGSTFFADSVKGRFTISRDNAKNTVYLQMNSLKPEDTAVYYCAAVDAVGPTSHAMFYWGQGTQVTGSS | low polyreactivity
